Assay results reported in US20150203577A1 (Chugai, published 2015).
Where a chain is given by its changes, count along the chain named.

T1: mouse FcγRII extracellular domain with C-terminal His tag (mouse, UniProt P08101 30-210)
T1 construct: Made on the basis of NCBI NP-034317.1; also called mFcγRII; mFcgRII
T1 sequence: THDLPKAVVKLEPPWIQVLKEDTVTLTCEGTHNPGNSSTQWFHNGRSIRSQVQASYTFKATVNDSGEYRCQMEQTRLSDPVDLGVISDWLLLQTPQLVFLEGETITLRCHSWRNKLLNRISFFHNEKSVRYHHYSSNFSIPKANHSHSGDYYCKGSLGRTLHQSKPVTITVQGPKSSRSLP

T2: mouse FcγRIII extracellular domain with C-terminal His tag (mouse, UniProt P08508 31-215)
T2 construct: Made on the basis of NCBI NP-034318.2; also called mFcγRIII; mFcgRIII
T2 chain: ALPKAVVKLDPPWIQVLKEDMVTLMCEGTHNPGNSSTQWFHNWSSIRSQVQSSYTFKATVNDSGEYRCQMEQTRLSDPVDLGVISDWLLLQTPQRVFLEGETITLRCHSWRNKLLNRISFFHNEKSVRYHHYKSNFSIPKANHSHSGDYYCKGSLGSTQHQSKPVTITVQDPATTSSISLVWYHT

T3: mouse FcγRIII extracellular domain, C-terminal His tag (mouse, UniProt P08508 31-215)
T3 construct: also called mFcγRIII; mFcgRIII
T3 chain: T2 chain

T4: mouse FcγRII extracellular domain, C-terminal His tag (mouse, UniProt P08101 30-210)
T4 construct: also called mFcγRII; mFcgRII
T4 sequence: T1 sequence

B1: H237-MB319/MRAL-k0 (antibody, mouse IgG1, kappa)
heavy: QVQLQESGPGLVKPSETLSLTCAVSGHSISHDHAWSWVRQPPGEGLEWIGFISYSGITNYNPSLQGRVTISRDNSKNTLYLQMNSLRAEDTAVYYCARSLARTTAMDYWGEGTLVTVSSAKTTPPSVYPLAPGSAAQTNSMVTLGCLVKGYFPEPVTVTWNSGSLSSGVHTFPAVLQSDLYTLSSSVTVPSSTWPSETVTCNVAHPASSTKVDKKIVPRDCGCKPCICEAEEVEDVFIFPPKPKDVLTITLTPKVTCVVVDISKDDPEVQFSWFVDDVEVHTAQTQPREEQFNSTFRSVSELPIMHQDWLNGKEFKCRVNSAAFPAPIEKTISKTKGRPKAPQVYTIPPPKEQMAKDKVSLTCMITDFFPEDITVEWQWNGQPAENYKNTQPIMDTDGSYFVYSKLNVQKSNWEAGNTFTCSVLHEGLHNHHTEKSLSHSPGK
light: not shown
notes: copies: 2 + 2
B2: H237-MB338/MRAL-k0 (antibody, mouse IgG1, kappa)
heavy: B1 heavy with A230D, E231P
light: not shown
notes: copies: 2 + 2
B3: H237-MB337/MRAL-k0 (antibody, mouse IgG1, kappa)
heavy: B1 heavy with E231P
light: not shown
notes: copies: 2 + 2
B4: H237-MB310/MRAL-k0 (antibody, mouse IgG1, kappa)
heavy: B1 heavy with E229T, A230D, E231P
light: not shown
notes: copies: 2 + 2
B5: H237-MB306/MRAL-k0 (antibody, mouse IgG1, kappa)
heavy: B1 heavy with E229T, E231P
light: not shown
notes: copies: 2 + 2
B6: H237-MB322/MRAL-k0 (antibody, mouse IgG1, kappa)
heavy: B1 heavy with A230D
light: not shown
notes: copies: 2 + 2
B7: H237-MB313/MRAL-k0 (antibody, mouse IgG1, kappa)
heavy: B1 heavy with E229T, A230V
light: not shown
notes: copies: 2 + 2
B8: H237-MB302/MRAL-k0 (antibody, mouse IgG1, kappa)
heavy: B1 heavy with A230V, E231P
light: not shown
notes: copies: 2 + 2
B9: H237-MB318/MRAL-k0 (antibody, mouse IgG1, kappa)
heavy: B1 heavy with A230V
light: not shown
notes: copies: 2 + 2
B10: H237-MB851/MRAL-k0 (antibody, mouse IgG1, kappa)
heavy: B1 heavy with A230P, E231N, D235L, A322D, A323G, K330R
light: not shown
notes: copies: 2 + 2
B11: H237-MB857/MRAL-k0 (antibody, mouse IgG1, kappa)
heavy: B1 heavy with A230P, E231N, D235L, N320D, A322D, A323G, E329Y
light: not shown
notes: copies: 2 + 2
B12: H237-MB876/MRAL-k0 (antibody, mouse IgG1, kappa)
heavy: B1 heavy with A230P, E231N, D235I, K264D, Q291L, A322D, A323G, E329Y
light: not shown
notes: copies: 2 + 2
B13: H237-MB859/MRAL-k0 (antibody, mouse IgG1, kappa)
heavy: B1 heavy with A230P, E231N, D235L, A322D, A323G, P327Y, K330R
light: not shown
notes: copies: 2 + 2
B14: H237-MB868/MRAL-k0 (antibody, mouse IgG1, kappa)
heavy: B1 heavy with A230P, E231N, D235I, K264D, N320D, A322D, A323G
light: not shown
notes: copies: 2 + 2
B15: H237-MB877/MRAL-k0 (antibody, mouse IgG1, kappa)
heavy: B1 heavy with A230P, E231N, D235I, K264D, N320D, A322D, A323G, K330R
light: not shown
notes: copies: 2 + 2
B16: H237-MB858/MRAL-k0 (antibody, mouse IgG1, kappa)
heavy: B1 heavy with A230P, E231N, D235L, N320D, A322D, A323G, K330R
light: not shown
notes: copies: 2 + 2
B17: H237-MB875/MRAL-k0 (antibody, mouse IgG1, kappa)
heavy: B1 heavy with A230P, E231N, D235I, K264D, Q291L, N320D, A322D, A323G
light: not shown
notes: copies: 2 + 2
B18: H237-MB856/MRAL-k0 (antibody, mouse IgG1, kappa)
heavy: B1 heavy with A230P, E231N, D235L, N320D, A322D, A323G, P327Y
light: not shown
notes: copies: 2 + 2
B19: H237-MB870/MRAL-k0 (antibody, mouse IgG1, kappa)
heavy: B1 heavy with A230P, E231N, D235I, K264D, A322D, A323G, K330R
light: not shown
notes: copies: 2 + 2
B20: H237-MB860/MRAL-k0 (antibody, mouse IgG1, kappa)
heavy: B1 heavy with A230P, E231N, D235L, A322D, A323G, E329Y, K330R
light: not shown
notes: copies: 2 + 2
B21: H237-MB862/MRAL-k0 (antibody, mouse IgG1, kappa)
heavy: B1 heavy with A230P, E231N, D235L, K264D, A322D, A323G, P327Y
light: not shown
notes: copies: 2 + 2
B22: H237-MB854/MRAL-k0 (antibody, mouse IgG1, kappa)
heavy: B1 heavy with A230P, E231N, D235L, Q291L, A322D, A323G, E329Y
light: not shown
notes: copies: 2 + 2
B23: H237-MB867/MRAL-k0 (antibody, mouse IgG1, kappa)
heavy: B1 heavy with A230P, E231N, D235I, K264D, A322D, A323G
light: not shown
notes: copies: 2 + 2
B24: H237-MB871/MRAL-k0 (antibody, mouse IgG1, kappa)
heavy: B1 heavy with A230P, E231N, D235I, K264D, Q291L, A322D, A323G
light: not shown
notes: copies: 2 + 2
B25: H237-MB869/MRAL-k0 (antibody, mouse IgG1, kappa)
heavy: B1 heavy with A230P, E231N, D235I, K264D, A322D, A323G, E329Y
light: not shown
notes: copies: 2 + 2
B26: H237-MB863/MRAL-k0 (antibody, mouse IgG1, kappa)
heavy: B1 heavy with A230P, E231N, D235L, K264D, A322D, A323G, E329Y
light: not shown
notes: copies: 2 + 2
B27: H237-MB852/MRAL-k0 (antibody, mouse IgG1, kappa)
heavy: B1 heavy with A230P, E231N, D235L, Q291L, N320D, A322D, A323G
light: not shown
notes: copies: 2 + 2
B28: H237-MB866/MRAL-k0 (antibody, mouse IgG1, kappa)
heavy: B1 heavy with A230P, E231N, D235I, A322D, A323G
light: not shown
notes: copies: 2 + 2

The binders below were run against T1, mouse FcγRII extracellular domain with … (assay: SPR Biacore T200; KD mFcγRIII / KD mFcγRII).
Experimental: (§1) Each altered antibody was analyzed for its interaction with each Fcγ receptor prepared above using Biacore T100 (GE Healthcare Japan Corp.), Biacore T200 (GE Healthcare Japan Corp.), Biacore A100, or Biacore 4000. The running buffer used was HBS-EP+ (GE Healthcare Japan Corp.). The assay temperature was set to 25° C. The sensor chips used were chips prepared by immobilizing Protein L (ACTIGEN or BioVision) onto Series S Sensor Chip CM5 (GE Healthcare Japan Corp.) or Series S Sensor Chip CM4 (GE Healthcare Japan Corp.) by the amine coupling method.
(§2) In order to calculate the KD value of each altered antibody for FcγR, kinetic analysis was conducted according to the following method: first, the antibody of interest was captured onto any of these chips and allowed to interact with mFcγR diluted with a running buffer. For the obtained sensorgram, the assay results were globally fit into the 1:1 Langmuir binding model using Biacore Evaluation Software to calculate an association rate constant ka (L/mol/s) and a dissociation rate constant kd (1/s). From these values, the dissociation constant KD (mol/L) was calculated.

Binder | relative I/A (mFcγRII selectivity) (mIgG1 = 1)
B1 | 14.1
B2 | 16.5
B3 | 16
B4 | 10.1
B5 | 15.7
B6 | 7.3
B7 | 10.1
B8 | 12
B9 | 10.5

What follows are binders tested against T1, mouse FcγRII extracellular domain with … (assay: SPR Biacore T200).
Experimental: as §1, §2

Binder | relative mFcγRII-binding activity (mIgG1 = 1)
B1 | 50
B2 | 42.2
B3 | 73.4
B4 | 38.8
B5 | 65.8
B6 | 9.2
B7 | 40.1
B8 | 53.7
B9 | 40.5

Biological target: T2, mouse FcγRIII extracellular domain with …
Assay: SPR Biacore T200
Experimental: as §1, §2

Binder | relative mFcγRIII-binding activity (mIgG1 = 1)
B1 | 3.6
B2 | 2.6
B3 | 4.6
B4 | 3.8
B5 | 4.2
B6 | 1.3
B7 | 4
B8 | 4.5
B9 | 3.9

Biological target: T3, mouse FcγRIII extracellular domain, …
Assay: SPR (Biacore T200), antibody captured on Protein L, mFcγR analyte

Binder | Kd | relative mFcγRIII-binding activity (mIgG1 = 1)
B10 | 295 nM | 1 fold vs H237-mIgG1/MRAL-k0
B11 | 313 nM | 0.9 fold vs H237-mIgG1/MRAL-k0
B12 | 191 nM | 1.5 fold vs H237-mIgG1/MRAL-k0
B13 | 396 nM | 0.7 fold vs H237-mIgG1/MRAL-k0
B14 | 329 nM | 0.9 fold vs H237-mIgG1/MRAL-k0
B15 | 195 nM | 1.4 fold vs H237-mIgG1/MRAL-k0
B16 | 223 nM | 1.3 fold vs H237-mIgG1/MRAL-k0
B17 | 147 nM | 1.9 fold vs H237-mIgG1/MRAL-k0
B18 | 311 nM | 0.9 fold vs H237-mIgG1/MRAL-k0
B19 | 269 nM | 1 fold vs H237-mIgG1/MRAL-k0
B20 | 379 nM | 0.7 fold vs H237-mIgG1/MRAL-k0
B21 | 142 nM | 2 fold vs H237-mIgG1/MRAL-k0
B22 | 225 nM | 1.3 fold vs H237-mIgG1/MRAL-k0
B23 | 331 nM | 0.9 fold vs H237-mIgG1/MRAL-k0
B24 | 169 nM | 1.7 fold vs H237-mIgG1/MRAL-k0
B25 | 300 nM | 0.9 fold vs H237-mIgG1/MRAL-k0
B26 | 121 nM | 2.3 fold vs H237-mIgG1/MRAL-k0
B27 | 154 nM | 1.8 fold vs H237-mIgG1/MRAL-k0
B28 | 1570 nM | 0.2 fold vs H237-mIgG1/MRAL-k0

These binders were tested against T4, mouse FcγRII extracellular domain, … in the same assay as above.

Binder | Kd | relative mFcγRII-binding activity (mIgG1 = 1)
B10 | 4.79 nM | 43.8 fold vs H237-mIgG1/MRAL-k0
B11 | 4.71 nM | 44.6 fold vs H237-mIgG1/MRAL-k0
B12 | 3.58 nM | 58.7 fold vs H237-mIgG1/MRAL-k0
B13 | 6.15 nM | 34.2 fold vs H237-mIgG1/MRAL-k0
B14 | 5.73 nM | 36.6 fold vs H237-mIgG1/MRAL-k0
B15 | 3.8 nM | 55.3 fold vs H237-mIgG1/MRAL-k0
B16 | 3.39 nM | 62 fold vs H237-mIgG1/MRAL-k0
B17 | 2.88 nM | 72.8 fold vs H237-mIgG1/MRAL-k0
B18 | 4.69 nM | 44.8 fold vs H237-mIgG1/MRAL-k0
B19 | 5.44 nM | 38.6 fold vs H237-mIgG1/MRAL-k0
B20 | 5.3 nM | 39.6 fold vs H237-mIgG1/MRAL-k0
B21 | 3.09 nM | 67.9 fold vs H237-mIgG1/MRAL-k0
B22 | 4.15 nM | 50.6 fold vs H237-mIgG1/MRAL-k0
B23 | 5.96 nM | 35.2 fold vs H237-mIgG1/MRAL-k0
B24 | 3.4 nM | 61.8 fold vs H237-mIgG1/MRAL-k0
B25 | 5.12 nM | 41 fold vs H237-mIgG1/MRAL-k0
B26 | 2.58 nM | 81.3 fold vs H237-mIgG1/MRAL-k0
B27 | 3.44 nM | 61 fold vs H237-mIgG1/MRAL-k0
B28 | 16.2 nM | 13 fold vs H237-mIgG1/MRAL-k0
